Test results reported in patent publication US20230002503A1.
pEC50, pKd: −log10 of the molar value.

What was measured:
[1] = molecular target: human CAIX on CHO cells (CHO-hCAIX) (human) (UniProt Q16790); assay: flow cytometry on CHO-hCAIX cells
[2] = molecular target: murine CAIX on CHO cells (CHO-mCAIX) (mouse) (UniProt Q8VHB5); assay: flow cytometry on CHO-mCAIX cells
[3] = molecular target: human CAIX antigen (purchased from AcroBiosystems) (human) (UniProt Q16790); assay: BLI (ForteBio), method of Example 3
[4] = molecular target: monkey CAIX on CHO cells (CHO-cyCAIX) (monkey); assay: flow cytometry on CHO-cyCAIX cells

Sequence of murine CAIX on CHO cells (CHO-mCAIX) (mouse) (Q8VHB5 32-437): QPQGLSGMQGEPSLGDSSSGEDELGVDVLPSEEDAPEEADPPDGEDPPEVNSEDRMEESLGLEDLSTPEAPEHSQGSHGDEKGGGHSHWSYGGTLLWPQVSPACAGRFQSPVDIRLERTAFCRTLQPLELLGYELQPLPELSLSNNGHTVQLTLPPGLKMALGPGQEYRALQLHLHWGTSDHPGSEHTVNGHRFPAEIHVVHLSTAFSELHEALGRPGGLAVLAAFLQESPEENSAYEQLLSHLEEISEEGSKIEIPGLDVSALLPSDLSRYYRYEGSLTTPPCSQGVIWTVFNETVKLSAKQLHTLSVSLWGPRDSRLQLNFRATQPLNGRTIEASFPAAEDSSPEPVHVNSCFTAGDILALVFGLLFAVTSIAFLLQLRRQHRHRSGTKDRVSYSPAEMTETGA

pEC50 [1]: 7.78
pEC50 [2]: 7.45
pKd [3]: 9.00
koff [3]: 0.0001 s⁻¹
kon [3]: 98600 M⁻¹ s⁻¹
pEC50 [4]: 7.55
Substance: Gerentuximab (antibody)
